Reference: US7592168B2, “Cephalosporin C acylase mutant and method for preparing 7-ACA using same” (Sandoz AG, priority 2003, dated 2009)

Legend:
Format in all cases: biochemical
[1] = One-step conversion of CPC into 7-ACA (HPLC); details: 50 mM CPC, pH 8.5, 25° C., 1 hr, purified enzyme
Method: E. coli BL21(DE3) transformant containing each one of pET29-TnS5αβ and pET29-S12 plasmids of Example <3-2> was cultivated in 5 l of a LB broth containing 20 μg/ml of kanamycin and 2% lactose at 25° C., 200 rpm for 72 hr with vigorous shaking. Further, E. coli MC1061(pBCPC) containing the wild-type CPC acylase gene was also cultivated in 10 l of a LB broth containing 25 μg/ml of chloramphenicol at 25° C., 200 rpm for 48 hr with vigorous shaking. After then, the wild-type CPC acylase, TnS5αβ and S12 CPC acylase mutants were purified from each culture broth according to the same method as described in Example <2-1>, respectively. The purified protein obtained above was subjected to dialysis with 50 mM phosphate buffer solution (pH 8.5), and the diffusate obtained by dialysis was used for a CPC conversion reaction.
After CPC was dissolved in 50 mM phosphate buffer solution (pH 8.5) at a final concentration of 50 mM, the purified enzyme solution dissolved in the same buffer solution was added to the CPC solution obtained above at a final concentration of 5 unit/mg to prepare […] of the reaction mixture. The reaction mixture was stirred at 25° C. for 1 hr to induce a CPC conversion reaction. At this time, in order to prevent pH of the reaction mixture from decreasing during the conversion reaction, when pH of the reaction mixture was reached to 8.4, 0.2 N NaOH solution was automatically injected to the reaction mixture by a pH regulator to constantly maintain pH of the reaction mixture at 8.5. 100 μl of the reaction mixture was taken from at a fixed time during the conversion reaction and immediately subjected to a HPLC analysis to quantify the amount of CPC and 7-ACA in the reaction mixture. […] In addition, the flow rate of mobile phase was 0.6 ml/min, the sample (20 μl) to be injected was prepared by appropriately diluting the reaction mixture with 50 mM phosphate buffer solution (pH 8.5), and its absorbance was detected at UV 250 nm.

[2] = Specific activity of CPC acylase to GL-7-ACA; details: purified enzyme
Method: J. Appl. Microbiol. Biotechnol. 23: 559-564, 1995). […] After the reaction, the mixture (200 μl) of 50 mM NaOH and 20% glacial acetic acid (1:2) was added thereto to stop the reaction. 200 μl of the supernatant recovered from the reaction mixture by centrifugation was mixed with 40 μl of 0.5% (w/v) PDAB (p-dimethylaminobenzaldehyde; Sigma, USA) dissolved in a methanol and the reaction mixture was incubated at 37° C. for 10 min. After the reaction, the absorbance of reaction mixture was measured at 415 nm and quantified by comparing with a calibration curve of standard material. […] Biochem. 72: 248-254, 1976) and representing it as an active unit corresponding to 1 mg of protein. The reactivity of CPC acylase mutant to CPC was determined by the following steps of adding the same amount of protein to a reaction mixture, performing an enzyme reaction for a fixed time, measuring the amount of 7-ACA produced in the reaction mixture, and representing it as a relative value. The end-product inhibition by 7-ACA was determined by adding a protein corresponding to the same active unit to a reaction mixture, performing an enzyme reaction for a fixed time; measuring the amount of 7-ACA produced in the reaction mixture, and representing it as a relative value.
Therefore, it has been known that the Pseudomonas sp.

[3] = Reactivity to CPC (relative 7-ACA produced by the same amount of protein); details: crude enzyme solution
Method: (§1) The enzyme activity of CPC acylase mutant to CPC was measured according to the method described by Park et al. with minor modifications as follows (Park, et al., Kor. J. Appl. Microbiol. Biotechnol. 23: 559-564, 1995). A substrate solution was prepared by dissolving CPC (purity 74.2%; CJ Corp., Korea) in 0.1 M Tris-HCl buffer solution (pH 8.0) at a concentration of 20 mg/ml and adjusting pH to 8 with 1 N NaOH. 20 μl of the CPC solution was mixed with 20 μl of the crude enzyme solution prepared above and the reaction mixture was incubated at 37° C. for 5 min. After the reaction, the mixture (200 μl) of 50 mM NaOH and 20% glacial acetic acid (1:2) was added thereto to stop the reaction. 200 μl of the supernatant recovered from the reaction mixture by centrifugation was mixed with 40 μl of 0.5% (w/v) PDAB (p-dimethylaminobenzaldehyde; Sigma, USA) dissolved in a methanol and the reaction mixture was incubated at 37° C. for 10 min. After the reaction, the absorbance of reaction mixture was measured at 415 nm and quantified by comparing with a calibration curve of standard material. […] Meanwhile, the specific activity of CPC acylase mutant for CPC was determined by measuring the amount of protein remaining in the enzyme solution according to the method described by Bradford (Bradford, M., Anal. Biochem. 72: 248-254, 1976) and representing it as an active unit corresponding to 1 mg of protein. […]

[4] = Optimal reaction temperature and pH to CPC; details: purified mutant enzyme
Method: Further, as a result of examining the optimal reaction temperature and pH of the wild-type CPC acylase AcyII, the optimal reaction temperature and pH to CPC were 40° C. and 9.0, respectively.

[5] = End-product inhibition by 7-ACA; details: same active unit of enzyme
Method: as §1

Molecule | CPC conversion rate [1] | specific activity to GL-7-ACA [2] | reactivity to CPC (in words) [3] | reaction feature (e.g., optimal temperature and pH) compared with wild-type [4] | end-product inhibition by 7-ACA (in words) [5] | 7-ACA yield [1]
Wild-type: Pseudomonas sp. SE83 derived wild-type CPC acylase (AcyII), α-subunit SEQ ID NO: 4 and β-subunit SEQ ID NO: 5, from pBCPC (protein, Pseudomonas sp. SE83) alpha: TMAAKTDREALQAALPPLSGSLSIPGLSAPVRVQRDGWGIPHIKASGEADAYRALGFVHAQDRLFQMELTRRKALGRAAEWLGAEAAEADILVRRLGMEKVCRRDFEALGAEAKDMLRAYVAGVNAFLASGAPLPIEYGLLGAEPEPWEPWHSIAVMRRLGLLMGSVWFKLWRMLALPVVGAANALKLRYDDGGQDLLCIPPGVEAERLEADLAALRPAVDALLKAMGG beta: SNNWAVAPGRTATGRPILAGDPHRVFEIPGMYAQHHLACDRFDMIGLTVPGVPGFPHFAHNGKVAYCVTHAFMDIHDLYLEQFAEDGRTARFGNEFEPVAWRRDRIAVRGGADREFDIVETRHGPVIAGDPLEGAALTLRSVQFAETDLSFDCLTRMPGASTVAQLYDATRGWGLIDHNLVAGDVAGSIGHLVRARVPSRPRENGWLPVPGWSGEHEWRGWIPHEAMPRVIDPPGGLIVTANNRVVADDHPDYLCTDCHPPYRAERIMERLVASPAFAVDDAAAIHADTLSPHVGLLRARLEALGIQGSLPAEELRQTLIAWDGRMDAGSQAASAYNAFRRALTRLVTARSGLEQAIAHPFAAVPPGVSPQGQVWWAVPTLLRNDDAGMLKGWSWDEALSEALSVATQNLTGRGWGEEHRPRFTHPLSAQFPAWAALLNPVSRPIGGDGDTVLANGLVPSAGPEATYGALSRYVFDVGNWDNSRWVVFHGASGHPASPHYADQNAPWSDCAMVPMLYSWDRIAAEAVTSQELVPA | 60% | about 23.1 unit/mg protein | – | – | – | –
S12: sixfold CPC acylase mutant, α-subunit SEQ ID NO: 7 and β-subunit SEQ ID NO: 8 (protein, alpha-subunit of mutatnt CPC acylase S12 protein; beta-subunit of mutatnt CPC acylase S12 protein) alpha: TMAAKTDREALQAALPPLSGSLSIPGLSAPVRVQRDGWGIPHIKASGEADAYRALGFVHAQDRLFQMELTRRKALGRAAEWLGAEAAEADILVRRLGMEKVCRRDFEALGAEAKDMLRAYAAGVNAFLASGAPLPIEYSLLGAEPEPWEPWHSIAVMRRLGLLMGSVWFKLWRMLALPVVGAANALKLRYDDGGQDLLCIPPGVEAERLEADLAALRPAVDALLKAMGG beta: SNNWAVAPGRTATGRPILAGDPHRVFEIPGMYAQHHLACDRFDMIGLTVPGVPGFPHNAHNGKVAYCVTHAFMDTHDLYLEQFAEDGRTARFGNEFEPVAWRRDRIAVRGGADREFDIVETRHGPVIAGDPLEGAALTLRSVQFAETDLSFDCLTRMPGASTVAQLYDATRGWGLVDHNLVAGDVAGSIGHLVRARVPSRPRENGWLPVPGWSGEHEWRGWIPHEAMPRVIDPPGGLIVTANNRVVADDHPDYLCTDCHPPYRAERIMERLVASPAFAVDDAAAIHADTLSPHVGLLRARLEALGIQGSLPAEELRQTLIAWDGRMDAGSQAASAYNAFRRALTRLVTARSGLEQAIAHPFAAVPPGVSPQGQVWWAVPTLLRNDDAGMLKGWSWDEALSEALSVATQNLTGRGWGEEHRPRFTHPLSAQFPAWAALLNPVSRPIGGDGDTVLANGLVPSAGPEATYGALCRYVFDVGNWDNSRWVVFHGASGHPASPHYADQNAPWSDCAMVPMLYSWDRIAAEAVTSQELVPA | 98% | – | higher than that of #76 mutant | the same as the wild-type CPC acylase | significantly decreased as compared with that of the wild-type enzyme | ≥ 90%
